Patent US20150004189A1

Assays:
[1] = molecular target: HLA DQ molecule DQB1*0202 (human); assay: inhibition of radiolabeled peptide binding to purified HLA class II
[2] = molecular target: HLA DQ molecule DQB1*0602 (human); assay: as above
[3] = molecular target: T1, HLA DP molecule DPB1*0401 (human); assay: inhibition of radiolabeled peptide binding to purified HLA DP
T1 chain 1: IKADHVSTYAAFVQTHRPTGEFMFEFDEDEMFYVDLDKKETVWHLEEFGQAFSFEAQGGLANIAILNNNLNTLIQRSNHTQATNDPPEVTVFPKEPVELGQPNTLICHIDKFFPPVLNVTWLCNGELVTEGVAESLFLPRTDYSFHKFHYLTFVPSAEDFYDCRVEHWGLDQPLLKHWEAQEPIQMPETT
T1 chain 2: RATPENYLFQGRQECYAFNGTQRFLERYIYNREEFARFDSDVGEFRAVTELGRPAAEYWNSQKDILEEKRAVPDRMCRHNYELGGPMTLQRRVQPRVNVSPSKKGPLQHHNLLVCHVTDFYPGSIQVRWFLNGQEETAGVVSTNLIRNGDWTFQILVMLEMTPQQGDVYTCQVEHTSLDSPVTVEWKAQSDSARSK

[4] = molecular target: HLA-DR molecules on the donors' cells (locus; alleles not stated); assay: cell-based or functional assay
[5] = molecular target: T2, HLA DP molecule DPB1*0201 (human); assay: competition vs radiolabeled peptide, purified HLA-DP
T2 chain 1: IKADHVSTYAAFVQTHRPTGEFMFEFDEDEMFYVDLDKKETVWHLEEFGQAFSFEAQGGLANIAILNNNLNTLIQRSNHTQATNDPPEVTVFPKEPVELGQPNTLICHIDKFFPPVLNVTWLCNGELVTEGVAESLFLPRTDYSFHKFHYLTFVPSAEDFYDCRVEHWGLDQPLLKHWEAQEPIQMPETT
T2 chain 2: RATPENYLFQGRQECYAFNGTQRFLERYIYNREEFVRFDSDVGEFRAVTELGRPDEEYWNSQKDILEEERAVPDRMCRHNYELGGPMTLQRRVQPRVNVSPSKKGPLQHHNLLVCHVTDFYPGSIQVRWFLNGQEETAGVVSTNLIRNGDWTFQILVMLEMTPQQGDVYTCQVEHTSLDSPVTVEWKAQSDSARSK

[6] = molecular target: T1, HLA DP molecule DPB1*0401 (human); assay: as above
[7] = molecular target: T3, HLA-DQ molecule DQB1*0501 (human); assay: competition: inhibition of radiolabeled peptide binding to purified HLA
T3 chain 1: not shown
T3 chain 2: not shown

[8] = molecular target: T4, HLA DQ molecule DQB1*0402 (human), P01909; assay: inhibition of radiolabeled peptide binding to purified HLA class II
T4 chain 1: not shown
T4 chain 2: not shown

[9] = molecular target: HLA DQ molecule DQB1*0502 (human); assay: as above
[10] = molecular target: HLA DQ molecule DQB1*0503 (human); assay: as above
HLA-DR DRB1*0301 (human) = molecular target: T5, HLA-DR DRB1*0301 (human); assay: as above; conditions: remark: other sources report otherwise
T5 chain 1: not shown
T5 chain 2: not shown

B1: Pen ch 18 (291-305) peptide …, Peptide ID 3324.1331 (peptide)
peptide: LDLAVNAAVDAGIHF
modifications: not checked
- IC50 [1]: 0.361 µM
- IC50 [2]: 0.48 µM

B2: Alt a 1 peptide, position 143 (Peptide ID 3324.0016) (peptide)
peptide: VADAYITLVTLPKSS
modifications: not checked
- IC50 [3]: 2.5 µM

B3: Alt a 1 peptide, position 111 (Peptide ID 3324.0013) (peptide)
peptide: KVSDDITYVATATLP
modifications: not checked
- IC50 [3]: 1.61 µM

B4: Lol p 2 (51-70) epitope region, Rye Grass (peptide, UniProt P14947 51-70, looked up)
peptide: DGVWEIKSDKPLKGPFNFRF
- Region restriction(s) DR (ELISPOT response inhibited by locus-specific mAb) [4]: 3 donors

B5: Pen ch 18 peptide, position 291, … (Peptide ID 3324.1331) (peptide)
peptide: LDLAVNAAVDAGIHF
modifications: not checked
- IC50 [5]: 5.05 µM
- IC50 [6]: 9.18 µM

B6: Alt a 1 peptide, position 11, Peptide ID 3324.0017 (peptide)
peptide: AAAGLAAAAPLESRQ
modifications: not checked
- IC50 [7]: 50 µM

B7: Pen ch 13 (271-285) peptide …, Peptide ID 3324.1303 (peptide)
peptide: GIFLSVAAGNEAENA
modifications: not checked
- IC50 [8]: 0.102 µM
- IC50 [9]: 50 µM
- IC50 [10]: 50 µM

B8: Alt a 1 peptide, position 116 (Peptide ID 3324.0014) (peptide)
peptide: ITYVATATLPNYCRA
modifications: not checked
- IC50 [3]: 2.99 µM

B9: Alt a 1 peptide, position 6, Peptide ID 3324.0015 (peptide)
peptide: IASLFAAAGLAAAAP
modifications: not checked
- IC50 (HLA-DR DRB1*0301 (human)): 32.1 µM

B10: Dac g 2 (11-30) epitope region, Orchard Grass (peptide, UniProt Q41183 11-30, looked up)
peptide: GSDEKNLALSIKYNKEGDSM
- Region restriction(s) DR (ELISPOT response inhibited by locus-specific mAb) [4]: 1 donors
